Data as given in publication PMC3836757.

What was measured:
[1] = molecular target: RNA polymerase core enzyme;sigma 32 (RpoH) (Escherichia coli;Ehrlichia chaffeensis) (UniProt P0A7Z4+P0A8V2+P0A8T7+P0A800+Q2GGG9); assay: EMSA; conditions: 50 mM Tris-acetate pH 8.0, 50 mM K-acetate, 8.1 mM Mg-acetate, 27 mM NH4-acetate, 100 ug/ml BSA, 5% glycerol, 50 ug/ml poly(dI-dC), 20 fmol each probe and RNAP …
[2] = molecular target: RNA polymerase core enzyme;sigma 70 (RpoD) (Escherichia coli;Ehrlichia chaffeensis) (UniProt P0A7Z4+P0A8V2+P0A8T7+P0A800+Q2GG75); assay: EMSA; conditions: 50 mM Tris-acetate pH 8.0, 50 mM K-acetate, 8.1 mM Mg-acetate, 27 mM NH4-acetate, 100 ug/ml BSA, 5% glycerol, 50 ug/ml poly(dI-dC), 20 fmol each probe and RNAP …

ATTGCAGATTAATTAATAATGCTTTAAGTAATAACAAATAAATTTAGTTGACTATATGAACTAACCTAATATCCTAAATCTTGTTCAGTTATGTAAAATTAGGAGTTAAAATTA (double strand) [hup promoter probe]
binding [1]: binds more weakly
binding [2]: binds

AAGCAAGTCTACTCATATTTTTATTAATTAAGTAGTAAAGTTAACTATAGATTTTATTAAAATTTTTATTCTAATCACTTTAAATATCAATTACTTTTGTTGTAAATTTGAAAGAAATTTTATATTCTAGACTTGCTTTTCTTTATTTCTTTCATTATTCTTAAATTTTTATTATCTTTTATAAAAGGTTTATTAACATG (double strand) [p28-Omp14 promoter probe]
binding [1]: binds more weakly
binding [2]: binds

CTGACGTAATATATTAAATTTTCCTTACAAAAGTTACCGATATTTTATACAAAAATTTATATTCTGACTTGCTTTTATATGACACTTCTACTATTGTTAATTTATTTGTCACTATTAGGTTATATATGAATTACA (double strand) [p28-Omp19 promoter probe]
binding [1]: binds more weakly
binding [2]: binds

TAACTTACTTAAAAAATTAACTACTTAAATATCAACGATGTTTTCAGTATCAAGTCAATTGATTTTTTATGTGTTATGTAAACTGTTACAGAGTAATATAATATTTCTACTGGGTCCTATAAAGTTCTAACCTTGTAAACATTTGTGCAATATGTATTATAAAATTTATTGATTGATACTTGAAATTAGATTTCTTGATATTATATATGATCTTAGCTAGTAGTATCTGATGCTACTGATAATTTATTTTTTTATAGAGGTAG (double strand) [groE promoter probe]
binding [1]: binds

TTCATAAATTTATGAACTTGTGTTAAATGGGGTTGTAATCTTATGATTTGGTTATTATATCTGTGATTATAGTTTTGATTTTTATGTAAGGGGGCTATTTATGGCTGTTATAGGTATAGATTTAGGTAC (double strand) [dnaK promoter probe]
binding [1]: binds
